Where a chain is given by its changes, count along the chain named.
T1: human FcγRIIb extracellular domain with C-terminal His-tag (human, UniProt P31994 43-217)
T1 construct: Expressed in FreeStyle 293 cells and purified; also called humanFcgRIIb; not shown: C-terminal His-tag
T1 sequence: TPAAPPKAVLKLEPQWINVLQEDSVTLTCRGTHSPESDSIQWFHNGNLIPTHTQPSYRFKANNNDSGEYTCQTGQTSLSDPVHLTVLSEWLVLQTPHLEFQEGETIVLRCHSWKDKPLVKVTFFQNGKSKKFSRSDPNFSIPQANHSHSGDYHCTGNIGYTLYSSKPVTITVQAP

T2: cynomolgus monkey FcγRIIa1 extracellular domain with C-terminal His-tag (cynomolgus monkey)
T2 construct: Expressed in FreeStyle 293 cells and purified; also called cyno FcγRIIa1; cynoFcgRIIa1; not shown: C-terminal His-tag
T2 chain: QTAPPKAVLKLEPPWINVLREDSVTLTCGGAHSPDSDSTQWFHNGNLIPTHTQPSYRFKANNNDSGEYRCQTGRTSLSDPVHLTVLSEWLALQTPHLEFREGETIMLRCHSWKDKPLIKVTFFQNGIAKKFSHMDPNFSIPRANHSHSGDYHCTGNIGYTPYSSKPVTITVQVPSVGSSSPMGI

T3: human FcγRIIaR extracellular domain with C-terminal His-tag (human, UniProt P12318 34-217)
T3 construct: Expressed in FreeStyle 293 cells and purified; also called human FcγRIIa (type R); FcgRIIaR; not shown: C-terminal His-tag
T3 chain: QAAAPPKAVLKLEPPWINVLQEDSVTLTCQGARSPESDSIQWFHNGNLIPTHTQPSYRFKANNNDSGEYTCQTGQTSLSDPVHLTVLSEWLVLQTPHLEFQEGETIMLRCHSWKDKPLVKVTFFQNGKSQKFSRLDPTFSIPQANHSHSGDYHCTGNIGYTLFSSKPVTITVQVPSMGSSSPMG

T4: cynomolgus monkey FcγRIIa3 extracellular domain with C-terminal His-tag (cynomolgus monkey)
T4 construct: Expressed in FreeStyle 293 cells and purified; also called cyno FcγRIIa3; cynoFcgRIIa3; not shown: C-terminal His-tag
T4 chain: T2 chain with P95T, T121A, A128S, H133P, D135N

T5: cynomolgus monkey FcγRIIb extracellular domain with C-terminal His-tag (cynomolgus monkey)
T5 construct: Expressed in FreeStyle 293 cells and purified; also called cyno FcγRIIb; cynoFcγRIIb; not shown: C-terminal His-tag
T5 chain: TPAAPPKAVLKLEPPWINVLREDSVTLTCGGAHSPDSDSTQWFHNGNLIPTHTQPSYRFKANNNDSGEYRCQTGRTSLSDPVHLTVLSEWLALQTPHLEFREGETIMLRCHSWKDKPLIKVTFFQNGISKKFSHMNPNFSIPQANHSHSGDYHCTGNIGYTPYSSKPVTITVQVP

T6: cynomolgus monkey FcγRIIIaS extracellular domain with C-terminal His-tag (cynomolgus monkey, UniProt Q8SPW2 21-206 at identity 1.00))
T6 construct: Expressed in FreeStyle 293 cells and purified; also called cyno FcγRIIIaS; cynoFcγRIIIaS; not shown: C-terminal His-tag
T6 chain: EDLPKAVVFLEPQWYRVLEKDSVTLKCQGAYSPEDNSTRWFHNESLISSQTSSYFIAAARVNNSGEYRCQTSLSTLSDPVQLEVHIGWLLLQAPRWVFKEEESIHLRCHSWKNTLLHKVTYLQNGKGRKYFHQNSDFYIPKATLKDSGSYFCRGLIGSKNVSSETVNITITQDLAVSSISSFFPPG

T7: cynomolgus monkey FcγRIIa2 extracellular domain with C-terminal His-tag (cynomolgus monkey)
T7 construct: Expressed in FreeStyle 293 cells and purified; also called cyno FcγRIIa2; cynoFcgRIIa2; not shown: C-terminal His-tag
T7 chain: T2 chain with P95T, T121A, I127K, A128S, K130N, D135N, R142Q

T8: human FcγRIIaH extracellular domain with C-terminal His-tag (human, UniProt P12318 34-217)
T8 construct: Expressed in FreeStyle 293 cells and purified; also called human FcγRIIa (type H); FcgRIIaH; not shown: C-terminal His-tag
T8 sequence: T3 chain with R134H

B1: M103205H795-MY208 / M103202L889-SK1 (antibody, human IgG1, kappa)
heavy: QVTLKESGPVLVKPTETLTLTCTVSGIDLSHDDISWVRQAPGKGLEWVGIISYAGSTYYASWAKGRLTISKDTSKNQVVLTMTNMDPVDTATYYCARGVPAYSHGGDLWGQGTLVTVSSASTKGPSVFPLAPSSKSTSGGTAALGCLVKDYFPEPVTVSWNSGALTSGVHTFPAVLQSSGLYSLSSVVTVPSSSLGTQTYICNVNHKPSNTKVDKKVEPKSCDKTHTCPPCPAPELLNGPSVFLFPPKPKDTLMISRTPEVTCVVVDVSDEDPEVKFNWYVDGVEVHNAKTKPREELYNSTYRVVSVLTVLHQDWLNGKEYKCKVSNKALPAPIEKTISKAKGQPREPQVYTLPPSREEMTKNQVSLTCLVKGFYPSDIAVEWESNGQPENNYKTTPPVLDSDGSFFLYSKLTVDKSRWQQGNVFSCSVMHEALHNHYTQKSLSLSP
light: DIVMTQSPATLSLSPGERATLSCTSSQSVYHANWLSWFQQKPGQPPKLLIYWASTLAYGVPSRFSGSGSGTDFTLTISSLQPEDAATYYCAGGYGGGRYAFGQGTKVEIKRTVAAPSVFIFPPSDEQLKSGTASVVCLLNNFYPREAKVQWKVDNALQSGNSQESVTEQDSKDSTYSLSSTLTLSKADYEKHKVYACEVTHQGLSSPVTKSFNRGEC
notes: Fc variant of M103205H795-SG1, expressed with M103202L889-SK1 as light chain
B2: M103205H795-MY210 / M103202L889-SK1 (antibody, human IgG1, kappa)
heavy: B1 heavy with L297Q, K328T, A332K
light: B1 light
notes: as for B1
B3: M103205H795-MY211 / M103202L889-SK1 (antibody, human IgG1, kappa)
heavy: B1 heavy with S241V, L297Q, K328T, A332K
light: B1 light
notes: as for B1
B4: M103205H795-MY212 / M103202L889-SK1 (antibody, human IgG1, kappa)
heavy: B1 heavy with S241V, K328T, A332K
light: B1 light
notes: as for B1
B5: M103205H795-MY288 / M103202L889-SK1 (antibody, human IgG1, kappa)
heavy: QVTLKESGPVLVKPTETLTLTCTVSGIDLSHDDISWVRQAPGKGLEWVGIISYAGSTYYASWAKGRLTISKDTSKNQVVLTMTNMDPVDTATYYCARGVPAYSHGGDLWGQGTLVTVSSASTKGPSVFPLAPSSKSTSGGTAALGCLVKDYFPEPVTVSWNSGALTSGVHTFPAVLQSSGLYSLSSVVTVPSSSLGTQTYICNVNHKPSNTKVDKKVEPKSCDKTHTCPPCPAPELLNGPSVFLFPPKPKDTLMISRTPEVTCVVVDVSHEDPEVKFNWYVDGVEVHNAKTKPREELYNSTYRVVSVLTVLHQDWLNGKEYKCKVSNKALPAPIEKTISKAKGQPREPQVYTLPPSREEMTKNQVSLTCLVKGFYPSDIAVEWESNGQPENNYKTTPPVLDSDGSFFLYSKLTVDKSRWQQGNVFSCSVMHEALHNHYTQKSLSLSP
light: B1 light
notes: as for B1
B6: M103205H795-MY289 / M103202L889-SK1 (antibody, human IgG1, kappa)
heavy: B1 heavy with D270H, L297Q, A332K, P398M
light: B1 light
notes: as for B1
B7: M103205H795-MY330 / M103202L889-SK1 (antibody, human IgG1, kappa)
heavy: B1 heavy with L237W, D270E, L297Q, A332K, P398M
light: B1 light
notes: as for B1
B8: M103205H795-MY434 / M103202L889-SK1 (antibody, human IgG1, kappa)
heavy: B1 heavy with L237W, L297Q, A332K
light: B1 light
notes: as for B1

Assays:
Assay in all cases: SPR (Biacore); KD of SG1 divided by KD of the variant for this FcgR;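 note: relative to parent M103205H795-SG1 carrying the SG1 human heavy chain constant region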
[1] = biological target: T1, human FcγRIIb extracellular domain with …
Experimental: (§1) Regarding such interactions, KD values were calculated using the following 1:1 binding model described in BIACORE® T100 Software Handbook BR1006-48 Edition AE.
(§2) The behavior of interacting molecules according to the 1:1 binding model on BIACORE® can be described by Equation 1: Req=C·R max/(KD+C)+RI, wherein, Req is a plot of steady-state binding levels to analyte concentration. C is concentration, RI is bulk refractive index contribution in the sample, and Rmax is analyte binding capacity of the surface. When this equation is rearranged, KD can be expressed as Equation 2: KD=C·Rmax/(Req−RI)−C. KD can be calculated by substituting the values of Rmax, RI, and C into Equation 1 or Equation 2. From the current measurement conditions, RI=0, C=2 μmol/L can be used.
(§3) The variants were expressed using M103202L889-SK1 as the light chain and their affinity was analyzed.

[2] = biological target: T2, cynomolgus monkey FcγRIIa1 …
Experimental: as §1, §2, §3

[3] = biological target: T3, human FcγRIIaR extracellular domain …
Experimental: as §1, §2, §3

[4] = biological target: T4, cynomolgus monkey FcγRIIa3 …
Experimental: as §1, §2, §3

[5] = biological target: T5, cynomolgus monkey FcγRIIb extracellular …
Experimental: as §1, §2, §3

[6] = biological target: T6, cynomolgus monkey FcγRIIIaS …
Experimental: as §1, §2, §3

[7] = biological target: T9, human FcγRIIIaV extracellular domain with C-terminal His-tag (human, UniProt P08637 17-208)
T9 construct: Expressed in FreeStyle 293 cells and purified; also called FcgRIIIaV; not shown: C-terminal His-tag
T9 sequence (P08637 17-208 F176V): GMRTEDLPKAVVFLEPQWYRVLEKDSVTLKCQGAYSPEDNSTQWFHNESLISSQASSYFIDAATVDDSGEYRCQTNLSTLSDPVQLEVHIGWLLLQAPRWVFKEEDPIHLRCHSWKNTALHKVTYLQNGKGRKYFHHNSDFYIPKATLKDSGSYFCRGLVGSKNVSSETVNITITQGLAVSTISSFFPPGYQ
Experimental: as §1, §2, §3

[8] = biological target: T7, cynomolgus monkey FcγRIIa2 …
Experimental: as §1, §2, §3

[9] = biological target: T8, human FcγRIIaH extracellular domain …
Experimental: as §1, §2, §3

Binder | KD fold (SG1 = 1) [1] | KD fold (SG1 = 1) [2] | KD fold (SG1 = 1) [3] | KD fold (SG1 = 1) [4] | KD fold (SG1 = 1) [5] | KD fold (SG1 = 1) [6] | KD fold (SG1 = 1) [7] | KD fold (SG1 = 1) [8] | KD fold (SG1 = 1) [9]
B1 | 4.2 fold | 2.7 fold | 0.5 fold | 2.5 fold | 2.8 fold | 0.18 fold | 0.08 fold | 5.4 fold | 0.8 fold
B2 | 4.7 fold | 3.4 fold | 0.8 fold | 7.4 fold | 6.4 fold | 0.15 fold | 0.05 fold | 8.1 fold | 0.6 fold
B3 | 5.6 fold | 4.3 fold | 0.8 fold | 6.3 fold | 3.8 fold | 0.12 fold | 0.17 fold | 3.8 fold | 0.6 fold
B4 | 7.3 fold | 5.7 fold | 0.8 fold | 5.9 fold | 4.9 fold | 0.14 fold | 0.12 fold | 9.6 fold | 0.9 fold
B5 | 0.9 fold | 2.1 fold | 0.1 fold | 3.6 fold | 3.5 fold | 0.08 fold | 0.01 fold | 2.6 fold | 0.5 fold
B6 | 1.6 fold | 2.5 fold | 0.8 fold | 2 fold | 2.4 fold | 0.07 fold | 0.11 fold | 3.4 fold | 0.3 fold
B7 | 6.9 fold | 1.5 fold | 1.2 fold | 3.6 fold | 3 fold | 0.05 fold | 0.07 fold | 2.3 fold | 0.7 fold
B8 | 3.3 fold | 1.1 fold | 0.6 fold | 2.7 fold | 2.4 fold | 0.03 fold | 0.05 fold | 2.1 fold | 0.4 fold
